Assay results as given in the supplement of paper PMC10065799, “High-throughput profiling of sequence recognition by tyrosine kinases and SH2 domains using bacterial peptide display” (eLife, 2023).

Experiments:
Jak2 = Jak2 (UniProt O60674); assay: phosphorylation enrichment, bacterial display (enrichment ratio); higher = better substrate or ligand; peptides without Tyr show the background
Fyn = Fyn (UniProt P06241); assay: as above
c-Src = assay: as above
MERTK = MERTK (UniProt Q12866); assay: as above
Fes = Fes (UniProt P07332); assay: as above
EPHB1 = EPHB1 (UniProt P54762); assay: as above
Fer (mouse) = assay: as above
FGFR1 = FGFR1 (UniProt P11362); assay: as above
FGFR3 = FGFR3 (UniProt P22607); assay: as above
c-Abl (mouse) = assay: as above
AncSZ = assay: as above
Hck = Hck (UniProt P08631); assay: as above
EPHB2 = EPHB2 (UniProt P29323); assay: as above
Grb2 SH2 = Grb2 SH2 (UniProt P62993); assay: SH2 binding enrichment of the phosphorylated peptide, bacterial display (enrichment ratio); higher = better substrate or ligand; peptides without Tyr show the background
SHP2-C SH2 = assay: as above
c-Src SH2 = assay: as above
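Throughout, for SH2 binding enrichment of the phosphorylated peptide, bacterial display: peptide library displayed on the E. coli surface as eCPX fusions, selected cells deep-sequenced, score is each peptide's frequency after selection divided by its frequency in the input.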
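Throughout, for phosphorylation enrichment, bacterial display: 11-residue human phosphosite peptides and single-mutation variants displayed on the E. coli surface, counted by deep sequencing, each peptide's frequency after selection divided by its frequency in the unselected input library; frequency after pTyr selection over input frequency; kinase dosed for 20-30% of maximal phosphorylation in three min.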

Sequence of Fes (P07332 whole entry, looked up): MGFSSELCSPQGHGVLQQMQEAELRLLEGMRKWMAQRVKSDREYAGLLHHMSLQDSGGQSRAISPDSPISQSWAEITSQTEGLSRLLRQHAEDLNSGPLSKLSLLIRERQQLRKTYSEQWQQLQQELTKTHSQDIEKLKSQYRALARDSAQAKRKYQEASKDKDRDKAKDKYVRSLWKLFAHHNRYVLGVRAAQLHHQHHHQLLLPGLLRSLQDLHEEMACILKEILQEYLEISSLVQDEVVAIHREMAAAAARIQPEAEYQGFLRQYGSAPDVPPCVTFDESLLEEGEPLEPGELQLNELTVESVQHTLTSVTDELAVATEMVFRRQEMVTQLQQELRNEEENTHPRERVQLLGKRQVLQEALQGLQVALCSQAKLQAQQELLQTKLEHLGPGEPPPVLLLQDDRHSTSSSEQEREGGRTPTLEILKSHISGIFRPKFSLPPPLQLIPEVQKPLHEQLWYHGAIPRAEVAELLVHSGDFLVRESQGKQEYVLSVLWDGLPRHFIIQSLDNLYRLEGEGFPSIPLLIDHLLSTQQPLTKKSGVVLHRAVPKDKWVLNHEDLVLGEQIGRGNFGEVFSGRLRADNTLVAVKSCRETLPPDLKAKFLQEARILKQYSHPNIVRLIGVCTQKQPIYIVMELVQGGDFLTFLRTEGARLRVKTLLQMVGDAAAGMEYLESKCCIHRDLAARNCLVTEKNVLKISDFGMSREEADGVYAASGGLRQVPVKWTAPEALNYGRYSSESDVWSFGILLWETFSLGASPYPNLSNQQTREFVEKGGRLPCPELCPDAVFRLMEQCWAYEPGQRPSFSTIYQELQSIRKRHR
Sequence of Fyn (P06241 whole entry, looked up): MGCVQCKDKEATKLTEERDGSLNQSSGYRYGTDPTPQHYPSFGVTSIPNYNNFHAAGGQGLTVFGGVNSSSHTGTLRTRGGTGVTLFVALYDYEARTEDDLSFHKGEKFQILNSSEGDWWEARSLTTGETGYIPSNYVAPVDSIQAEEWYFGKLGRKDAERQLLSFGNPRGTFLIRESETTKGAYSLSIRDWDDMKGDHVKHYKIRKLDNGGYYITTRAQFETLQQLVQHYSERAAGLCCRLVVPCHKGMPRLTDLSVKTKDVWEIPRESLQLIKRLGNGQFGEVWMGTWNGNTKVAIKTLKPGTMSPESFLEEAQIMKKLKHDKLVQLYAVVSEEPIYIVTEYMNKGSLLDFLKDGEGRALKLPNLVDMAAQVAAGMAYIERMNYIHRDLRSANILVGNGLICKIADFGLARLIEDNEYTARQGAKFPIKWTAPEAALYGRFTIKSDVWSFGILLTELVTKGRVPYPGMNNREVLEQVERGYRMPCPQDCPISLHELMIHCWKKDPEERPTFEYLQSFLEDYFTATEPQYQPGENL
Sequence of FGFR3 (P22607 whole entry, looked up): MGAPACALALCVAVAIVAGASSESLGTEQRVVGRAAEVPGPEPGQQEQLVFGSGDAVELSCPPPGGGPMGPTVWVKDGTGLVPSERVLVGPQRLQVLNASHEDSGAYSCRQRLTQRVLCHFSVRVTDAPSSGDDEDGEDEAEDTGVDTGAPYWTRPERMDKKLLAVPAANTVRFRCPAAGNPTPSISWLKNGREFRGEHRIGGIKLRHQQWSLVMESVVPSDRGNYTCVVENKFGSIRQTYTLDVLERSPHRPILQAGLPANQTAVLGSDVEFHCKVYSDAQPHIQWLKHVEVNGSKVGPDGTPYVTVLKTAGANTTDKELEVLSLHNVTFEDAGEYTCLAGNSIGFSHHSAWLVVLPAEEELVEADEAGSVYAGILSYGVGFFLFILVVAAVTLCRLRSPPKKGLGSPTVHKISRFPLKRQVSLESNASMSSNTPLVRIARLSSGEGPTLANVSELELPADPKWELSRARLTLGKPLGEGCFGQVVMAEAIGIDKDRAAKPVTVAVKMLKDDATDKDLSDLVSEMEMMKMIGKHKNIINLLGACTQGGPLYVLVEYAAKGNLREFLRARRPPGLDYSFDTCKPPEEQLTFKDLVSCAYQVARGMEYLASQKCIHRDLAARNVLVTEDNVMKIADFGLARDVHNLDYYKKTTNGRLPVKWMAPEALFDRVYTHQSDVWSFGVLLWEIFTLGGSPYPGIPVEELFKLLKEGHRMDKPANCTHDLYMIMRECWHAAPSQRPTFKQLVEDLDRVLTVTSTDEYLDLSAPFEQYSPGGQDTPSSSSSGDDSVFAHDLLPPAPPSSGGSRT
Sequence of Grb2 SH2 (P62993 whole entry, looked up): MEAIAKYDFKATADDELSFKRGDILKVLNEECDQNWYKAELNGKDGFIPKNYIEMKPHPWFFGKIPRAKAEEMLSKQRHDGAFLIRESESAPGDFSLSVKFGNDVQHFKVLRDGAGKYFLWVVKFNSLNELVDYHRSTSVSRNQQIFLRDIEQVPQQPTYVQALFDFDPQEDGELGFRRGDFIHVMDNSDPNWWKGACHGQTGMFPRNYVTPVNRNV
Sequence of MERTK (Q12866 whole entry, looked up): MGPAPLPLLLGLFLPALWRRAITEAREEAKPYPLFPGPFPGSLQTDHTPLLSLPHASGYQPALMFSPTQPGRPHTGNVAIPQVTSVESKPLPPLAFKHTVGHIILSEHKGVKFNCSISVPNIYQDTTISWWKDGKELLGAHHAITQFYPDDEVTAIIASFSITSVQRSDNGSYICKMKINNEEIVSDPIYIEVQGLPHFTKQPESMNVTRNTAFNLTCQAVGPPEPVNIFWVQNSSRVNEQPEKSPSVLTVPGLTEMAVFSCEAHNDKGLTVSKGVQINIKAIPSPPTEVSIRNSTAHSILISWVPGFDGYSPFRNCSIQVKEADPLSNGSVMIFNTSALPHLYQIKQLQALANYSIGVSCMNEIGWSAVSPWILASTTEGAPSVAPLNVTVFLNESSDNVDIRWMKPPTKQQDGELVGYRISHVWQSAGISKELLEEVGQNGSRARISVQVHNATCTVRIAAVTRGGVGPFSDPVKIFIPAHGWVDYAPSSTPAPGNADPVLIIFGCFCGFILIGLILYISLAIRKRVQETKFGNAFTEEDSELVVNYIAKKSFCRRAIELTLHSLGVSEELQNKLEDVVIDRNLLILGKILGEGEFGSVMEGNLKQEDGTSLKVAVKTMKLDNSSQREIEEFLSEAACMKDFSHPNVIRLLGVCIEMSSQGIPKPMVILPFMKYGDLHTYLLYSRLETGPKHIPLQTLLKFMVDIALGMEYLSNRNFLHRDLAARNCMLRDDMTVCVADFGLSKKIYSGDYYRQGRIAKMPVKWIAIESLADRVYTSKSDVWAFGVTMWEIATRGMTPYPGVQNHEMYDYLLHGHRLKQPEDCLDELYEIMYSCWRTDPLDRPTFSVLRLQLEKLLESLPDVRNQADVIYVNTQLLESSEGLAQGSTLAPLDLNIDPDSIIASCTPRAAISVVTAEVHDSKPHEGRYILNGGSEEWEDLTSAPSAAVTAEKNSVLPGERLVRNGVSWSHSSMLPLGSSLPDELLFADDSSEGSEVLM
Sequence of EPHB1 (P54762 whole entry, looked up): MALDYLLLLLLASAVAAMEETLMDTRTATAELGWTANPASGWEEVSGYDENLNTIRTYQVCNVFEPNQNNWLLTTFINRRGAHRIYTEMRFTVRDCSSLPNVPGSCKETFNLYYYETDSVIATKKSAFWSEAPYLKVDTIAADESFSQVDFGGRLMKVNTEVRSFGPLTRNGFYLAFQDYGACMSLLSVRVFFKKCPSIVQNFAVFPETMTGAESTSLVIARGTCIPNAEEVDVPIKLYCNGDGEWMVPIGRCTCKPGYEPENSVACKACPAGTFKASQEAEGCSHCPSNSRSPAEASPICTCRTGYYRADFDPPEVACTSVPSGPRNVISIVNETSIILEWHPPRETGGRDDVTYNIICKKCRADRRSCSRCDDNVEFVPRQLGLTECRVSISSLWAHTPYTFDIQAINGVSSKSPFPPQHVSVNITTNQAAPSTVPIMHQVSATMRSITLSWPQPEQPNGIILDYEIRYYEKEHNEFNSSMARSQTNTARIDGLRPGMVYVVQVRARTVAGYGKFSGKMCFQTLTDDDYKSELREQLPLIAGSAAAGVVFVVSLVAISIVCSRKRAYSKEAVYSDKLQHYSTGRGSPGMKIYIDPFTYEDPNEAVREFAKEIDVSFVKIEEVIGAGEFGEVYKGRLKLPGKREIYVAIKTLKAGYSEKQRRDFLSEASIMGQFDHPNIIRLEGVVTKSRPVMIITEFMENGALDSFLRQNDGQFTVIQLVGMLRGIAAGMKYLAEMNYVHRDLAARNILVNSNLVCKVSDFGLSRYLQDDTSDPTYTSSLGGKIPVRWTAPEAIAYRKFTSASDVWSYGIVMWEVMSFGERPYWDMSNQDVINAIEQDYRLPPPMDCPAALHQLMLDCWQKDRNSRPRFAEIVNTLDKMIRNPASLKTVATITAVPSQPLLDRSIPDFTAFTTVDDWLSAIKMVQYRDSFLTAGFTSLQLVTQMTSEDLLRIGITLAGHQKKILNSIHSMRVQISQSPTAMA
Sequence of Hck (P08631 whole entry, looked up): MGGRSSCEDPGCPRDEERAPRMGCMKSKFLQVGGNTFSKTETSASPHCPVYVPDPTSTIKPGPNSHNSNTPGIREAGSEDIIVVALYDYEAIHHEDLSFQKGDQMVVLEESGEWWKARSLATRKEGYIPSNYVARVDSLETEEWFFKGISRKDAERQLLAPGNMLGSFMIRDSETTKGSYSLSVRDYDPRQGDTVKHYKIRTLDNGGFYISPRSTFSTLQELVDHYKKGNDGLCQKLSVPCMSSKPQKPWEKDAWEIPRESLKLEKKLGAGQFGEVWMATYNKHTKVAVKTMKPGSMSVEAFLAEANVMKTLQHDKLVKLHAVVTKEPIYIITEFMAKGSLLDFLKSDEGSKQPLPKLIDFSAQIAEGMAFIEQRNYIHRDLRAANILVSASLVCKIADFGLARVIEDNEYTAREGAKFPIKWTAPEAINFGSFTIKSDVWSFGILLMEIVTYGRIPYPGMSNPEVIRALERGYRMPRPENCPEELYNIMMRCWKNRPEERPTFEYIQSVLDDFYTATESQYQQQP

| Sequence | phosphorylation enrichment (Jak2) | phosphorylation enrichment (Fyn) | phosphorylation enrichment (c-Src) | phosphorylation enrichment (MERTK) | phosphorylation enrichment (Fes) | phosphorylation enrichment (EPHB1) | phosphorylation enrichment (Fer (mouse)) | phosphorylation enrichment (FGFR1) | phosphorylation enrichment (FGFR3) | phosphorylation enrichment (c-Abl (mouse)) | phosphorylation enrichment (AncSZ) | phosphorylation enrichment (Hck) | phosphorylation enrichment (EPHB2) | SH2 binding enrichment (Grb2 SH2) | SH2 binding enrichment (SHP2-C SH2) | SH2 binding enrichment (c-Src SH2) |
| --- | --- | --- | --- | --- | --- | --- | --- | --- | --- | --- | --- | --- | --- | --- | --- | --- |
| SRIWVYNHYRC [BRCA2_Y2621_W2626C] | 0.934 | 0.396 | 0.392 | 0.377 | 1.11 | 0.555 | 0.482 | 0.51 | 0.726 | 0.65 | 0.927 | 0.459 | 0.587 | 0.938 | 0.864 | 0.695 |
| PYGQWYESHYA [RPS8_Y113_R110G] | 1.09 | 6.11 | 6.96 | 9.28 | 2.16 | 14.5 | 20.6 | 2.7 | 2.15 | 1.06 | 1.55 | 5.96 | 15.1 | 0.808 | 0.992 | 1.47 |
| WGTAEYDSVVA [MAP1A_Y1883] | 1.18 | 0.66 | 0.819 | 0.456 | 1.24 | 0.685 | 1.57 | 0.583 | 0.817 | 0.703 | 1.4 | 1.16 | 0.86 | 0.893 | 0.639 | 1 |
| ADRNHYRRFPR [YBX1_Y145_YF] | 0.654 | 0.519 | 0.689 | 0.552 | 0.71 | 0.452 | 0.603 | 0.539 | 0.508 | 0.871 | 0.8 | 0.556 | 0.54 | 0.601 | 0.55 | 0.488 |
| MTFQNYGQALF [FAM20C_Y279] | 0.893 | 0.458 | 0.489 | 0.429 | 0.827 | 0.758 | 0.496 | 0.46 | 0.739 | 0.605 | 0.901 | 0.462 | 1.65 | 0.921 | 0.783 | 0.515 |
| ASMAKYFASEI [ACADSB_Y372_YF] | 0.817 | 0.504 | 0.35 | 0.416 | 0.842 | 0.484 | 0.449 | 0.709 | 0.781 | 0.474 | 0.721 | 0.384 | 0.436 | 0.75 | 0.677 | 0.497 |
| MQMEEYRGWVE [BTNL2_Y91] | 1.25 | 0.409 | 0.553 | 0.423 | 1.07 | 0.503 | 0.449 | 0.488 | 0.599 | 0.545 | 1.22 | 0.464 | 0.711 | 0.946 | 0.392 | 0.391 |
| KLQQWYREHRS [GPI_Y17] | 0.567 | 0.382 | 0.384 | 0.355 | 0.613 | 0.37 | 0.392 | 0.434 | 0.475 | 0.548 | 0.6 | 0.44 | 0.399 | 1.37 | 1.12 | 1.26 |
| LYEDCYLLGTS [ASS1_Y87_R86C] | 1.78 | 4.12 | 4.68 | 3.13 | 2.12 | 7.04 | 13.4 | 1.26 | 1.28 | 1.08 | 2.29 | 1.9 | 3.42 | 0.933 | 0.314 | 0.962 |
| QISSNYDDAMQ [ZNF281_Y531] | 0.939 | 0.348 | 0.57 | 0.845 | 0.978 | 0.665 | 0.533 | 0.434 | 0.703 | 0.569 | 0.962 | 0.499 | 0.771 | 0.667 | 0.728 | 1.11 |
| FDKEFYSVHNK [MET_Y1235_YF] | 0.866 | 0.479 | 0.641 | 0.721 | 0.947 | 0.432 | 0.561 | 0.528 | 0.717 | 0.959 | 0.806 | 0.803 | 0.638 | 0.917 | 0.841 | 0.543 |
| AKKKMYSLKTK [AGXT_Y231_R233L] | 0.795 | 0.365 | 0.434 | 0.435 | 0.791 | 0.317 | 0.373 | 0.389 | 0.853 | 0.773 | 0.404 | 0.44 | 0.463 | 1.2 | 1.51 | 1.54 |
| LKRIAYFLCLL [LGI1_Y21] | 1.09 | 0.506 | 0.484 | 0.424 | 1.53 | 0.64 | 0.714 | 0.696 | 0.741 | 0.821 | 1.05 | 0.394 | 0.536 | 1.4 | 1.18 | 1.23 |
| GESQGYDIMEA [MSH2_Y863_P868A] | 0.744 | 0.456 | 0.417 | 0.42 | 0.883 | 0.469 | 0.463 | 0.536 | 0.546 | 0.577 | 0.85 | 0.492 | 0.484 | 0.778 | 0.876 | 4.32 |
| GLNKGYRMVVN [HINT1_Y94] | 0.403 | 0.375 | 0.34 | 0.303 | 0.696 | 0.307 | 0.318 | 0.388 | 0.449 | 0.461 | 0.531 | 0.436 | 0.392 | 0.665 | 0.503 | 0.424 |
| DEDYLYREELA [POR_Y575] | 1.25 | 0.579 | 0.535 | 0.502 | 1.36 | 0.71 | 0.61 | 0.814 | 1.18 | 0.903 | 1.61 | 0.642 | 0.647 | 0.904 | 0.881 | 0.501 |
